Data from US20210032351A1 (XDCEXPLORER SHANGHAI, published 2021).
Positions count from the first letter of the chain named.

B1: Humanized antibody h75G7C6-13 (antibody, human IgG1, V domains shown)
VH: QVQLVQSGAEVKKPGASVKVSCKASGYTFTDYNMDWVKQAPGQGLEWIGDINPNNADTIYNQKFKGRVTLTVDKSTSTVYMELSSLRSEDTAVYYCARGDYDGYYPVYYAMDYWGQGTTVTVSS
VL: EIVLTQSPATLSLSPGERATLSCRASSSVSSSYLHWYQQKPGQAPRLLIYSTSNLAAGIPARFSGSGSGTDFTLTISSLEPEDFAVYYCQQYSGYPLTFGGGTKVEIK
notes: also called VH-g2/VL-g0
B2: Humanized antibody h75G7C6-14 (antibody, human IgG1, V domains shown)
VH: B1 VH
VL: B1 VL with I2N, Y50F, F72Y
notes: also called VH-g2/VL-g1
B3: Humanized antibody h75G7C6-16 (antibody, human IgG1, V domains shown)
VH: B1 VH
VL: B1 VL with I2N, A44S, Y50F, I59V, F72Y
notes: also called VH-g2/VL-g3
B4: Humanized antibody h75G7C6-15 (antibody, human IgG1, V domains shown)
VH: B1 VH
VL: B1 VL with I2N, A44S, Y50F, F72Y
notes: also called VH-g2/VL-g2
B5: Chimeric antibody 64F1 (antibody, human IgG1, V domains shown)
VH: QVQLQQSGAELARPGASVKMSCKASGYTFSSYTMHWAKQRPGQGLEWIGYINPSSGYTKYNQKFKDKATLTADKSSSTAYMQLSSLTSEDSIVYYCARGGGRGFAYWGQGTLVTVSA
VL: QIVLTQSPAIMSASPGERVTMTCSASSSVSYMYWYQQKPGSSPRLLIYDTSNLASGVPVRFSGSGSGTSYSLTISRVEAEDAATYYCQQWSSYSLTFGAGTKLELK
notes: also called 64F1F8 (chimeric)
B6: Chimeric antibody 75G7 (antibody, human IgG1, V domains shown)
VH: EVQLQQSGPELVKPGASVKIPCKASGYTFTDYNMDWVKQSHGKSLEWIGDINPNNGDTIYNQKFKGKATLTVDKSSSTAYMELRSLTSEDTAVYYCARGDYDGYYPVYYAMDYWGQGTSVTVSS
VL: ENVLTQSPAIMSASPGEKVTMTCRASSSVSSSYLHWYQQKSGASPKLWIFSTSNLAAGVPARFSGSGSGTSYSLTVSSVEAEDAATYYCQQYSGYPLTFGAGTKLELK
notes: also called c75G7C6; wild-type chimeric antibody c75G7C6
B7: Chimeric antibody 63A10-MMAF (antibody, human IgG1, V domains shown)
VH: B5 VH with S30I, Y32F, A37V, S54N, D73G, K74Q, I92A, A97T
VL: DILMTQSPSSMSVSLGDTVTITCHASQDINSNIGWLQQKPGKSFKALIYHGTNLEDGVPSRFSGSGSGADYSLTISSLESEDFADYYCVQYAQFPFTFGSGTKLEIK
modifications: MC-MMAF coupled after TCEP reduction (sites not given); DAR 3.10 for the antibody
B8: Chimeric antibody 64F1-MMAF (antibody, human IgG1, V domains shown)
VH: B5 VH
VL: B5 VL
modifications: MC-MMAF coupled after TCEP reduction (sites not given); DAR 4.05 for the antibody
B9: Chimeric antibody 7E5-MMAF (antibody, human IgG1, V domains shown)
VH: EIQLQQSGPELVKPGASVKVSCKASGYSFTDYNMYWVKQSHGKSLEWIGYVDPSNGGTNYNQKFKGKATLTVDKSSSTAFMHLNSLTSEDSAVYYCARGFFDYWGQGTTLTVSS
VL: DIVMTQSPSSLTVTAGEKVTMSCKSSQSLLNSGNQKNYLTWYQQKPGQPPKLLIYWASNRESGVPDRFTGSGSGKDFTLTISSVQAEDLAVYYCQNDYRYPVTFGAGTKLELK
modifications: MC-MMAF coupled after TCEP reduction (sites not given); DAR 3.51 for the antibody
B10: Chimeric antibody 75G7-MMAF (antibody, human IgG1, V domains shown)
VH: B6 VH
VL: B6 VL
modifications: MC-MMAF coupled after TCEP reduction (sites not given); DAR 3.40 for the antibody

Biological target: T1, human EGFRvIII protein on the cell surface (human, UniProt P00533 25-1210)
T1 construct: whole, on cells; the cell line is named under assay; also called hEGFRvIII; U87MG-hEGFRvIII
Experiment: FACS on U87MG-EGFRvIII cells
Description: (§1) The preparation of U87MG-EGFRvIII required for FACS detection is as described in the preparation of the immunogen B in example 1. Normal human primary hepatocytes are purchased from BioreclamationIVT, and A431 tumor cells are purchased from ATCC. The recovered hepatocytes are directly used for FACS detection, and the recovered U87MG-EGFRvIII and A431 cells are subjected to an expanded culture to 90% confluence in a T-75 cell culture flask; the medium is sucked out, and the cells are washed twice with a HBSS buffer (Hanks Balanced Salt Solution) (purchased from Invitrogen), and then treated with an enzyme-free cell dissociation solution (Versene solution: purchased from Life Technology) and collected. The cells are washed twice with the HBSS buffer and are counted, and then the cells are diluted with the HBSS buffer to 2×10⁶ cells/ml, added with 1% goat serum blocking solution, with the percentage being the mass percentage, and incubated on ice for 30 minutes, and then centrifugally washed twice with the HBSS buffer. The collected cells are resuspended to 2×10⁶ cells/mL with an FACS buffer (HBSS+2% FBS, with the percentage being the volume percentage), added to a 96-well FACS reaction plate at 100 μL/well, then added with 100 μL/well of the purified EGFRvIII antibody (samples to be tested) obtained in example 12, and incubated on ice for 2 hours. The plate is centrifugally washed twice with the FACS buffer, added with 100 μL/well of a 1:1000 diluted fluorescence (Alexa 488) labeled secondary antibody (purchased from Invitrogen), and incubated on ice for 1 hour. The plate is centrifugally washed 3 times with the FACS buffer, added with 100 μL/well of a fixing solution [4% (v/v) paraformaldehyde] to resuspend the cells, and centrifugally washed twice with the FACS buffer after 10 minutes. The cells are resuspended in 100 μL of the FACS buffer, and the results are detected and analyzed by FACS (FACS Calibur, purchased from BD). Data analysis is performed by using the software (CellQuest) to obtain the mean fluorescence intensity (MFI) of the cells. Data is further analyzed by using the software (GraphPad Prism5) to perform data fitting and calculate EC50.

EC50 [nM]	Maximum mean fluorescence intensity [MFI]	Binder
6.77	18700	B1
6.37	18500	B2
6.74	18900	B3
6.45	18900	B4

Biological target: T2, human EGFRvIII-hFc protein (human, UniProt P00533 25-645)
T2 construct: extracellular domain; made in HEK293 cells, purified on protein A; also called immunogen A; hFc-tagged EGFRvIII protein; not shown: human IgG Fc fragment (hFc) of the pCpC vector
Experiment: ELISA, plate coated with human EGFRvIII-hFc, HRP secondary antibody, absorbance at 450 nm
Description: (§2) The purified immunogen A (EGFRvIII-hFc) obtained in example 1 (for the preparation method, see step (I) in example 1) is diluted with PBS to a final concentration of 1.0 μg/mL, and then added to a 96-well ELISA plate at 100 μl/well. The plate is sealed with a plastic film and incubated at 4° C. overnight. The next day, the plate is washed twice with a plate washing solution [PBS+0.01% (v/v) Tween20], and added with a blocking solution [PBS+0.01% (v/v) Tween20+1% (w/w) BSA] for blocking 2 hours at room temperature. […] The plate is incubated for 2 hours at 37° C., and then washed 3 times with the plate washing solution [PBS+0.01% (v/v) Tween20]. The plate is added with an HRP (horseradish peroxidase) labeled secondary antibody (purchased from Sigma), incubated at 37° C. for 2 hours, and then washed 3 times with the plate washing solution [PBS+0.01% (v/v) Tween20]. The plate is added with 100 μl of TMB substrate/well, incubated for 30 minutes at room temperature, and then added with 100 μl of stopping solution (1.0N HCl)/well. A450 nm value is read using an ELISA plate reader (SpectraMax 384plus, purchased from Molecular Device), and the results are shown in FIG. 11 and table 19.

EC50 (read off the curve) [nM]	Binder
~0.01	B5
~0.05	B6

Biological target: T3, human wild-type EGFR protein on the cell surface (human, UniProt P00533 25-1210)
T3 construct: whole, on cells; Endogenous on A431, HEB, U87MG cells and normal human primary hepatocytes; transfected on CHOk1-EGFR cells; The cell is named under assay; also called A431; HEB
Experiment: FACS on A431 tumor cells
Description: as §1

MFI [MFI]	Binder
11500	B1
11500	B2
12400	B3
13000	B4

Biological target: T1, human EGFRvIII protein on the cell …
Experiment: cell-based or functional assay

Binder	IC50, nM; cell killing of U87MG-hEGFRvIII (CellTiter-Glo, 5 days) [nM]
B7	0.01
B8	0.01
B9	0.04
B10	0.27

Biological target: T3, human wild-type EGFR protein on the …
Experiment: FACS on normal human primary hepatocytes
Description: as §1

MFI [MFI]	Binder
256	B1
248	B2
269	B3
287	B4

Biological target: T3, human wild-type EGFR protein on the …
Experiment: FACS, MFI on A431 cells over MFI on normal primary hepatocytes
Description: as §1

Selective window (MFI A431/Hepatocytes) [fold]	Binder
44.7	B1
46.2	B2
46.2	B3
45.3	B4

Biological target: T4, human EGFRvIII-hFc protein (human, UniProt P00533 25-645)
T4 construct: extracellular domain; also called immunogen A; hFc-tagged EGFRvIII protein; not shown: human IgG Fc fragment (hFc) of the pCpC vector
Experiment: ELISA, EGFRvIII-hFc coated
Description: The purified humanized anti-EGFRvIII antibody obtained in example 12 is reacted with a human EGFRvIII-hFc protein.
as §2, with “Device).” for “Device), and the results are shown in FIG. 11 and table 19.”

EC50 [nM]	Maximum OD450 value [OD450]	Binder
0.48	3.16	B1
0.32	3.03	B2
0.27	2.97	B3
0.29	3.19	B4
